Consider one protein from publication PMC10256154, “An unbroken network of interactions connecting flagellin domains is required for motility in viscous environments” (PLOS Pathogens, 2023).

This series deals with the molecule itself. Briefly: SEC; Superdex 200 Increase 10/300 GL; recombinant full-length FliC proteins after NiNTA, PBS buffer.

B1: full-length FliC Δ204–205 of P. aeruginosa PAO1, recombinant (natural protein)
chain: MALTVNTNIASLNTQRNLNASSNDLNTSLQRLTTGYRINSAKDDAAGLQISNRLSNQISGLNVATRNANDGISLAQTAEGALQQSTNILQRIRDLALQSANGSNSDADRAALQKEVAAQQAELTRISDTTTFGGRKLLDGSFGTTSFQVGSNAYETIDISLQNASASAIGSYQVGSNGAGTVASVAGTATASGIASGTVNLVGQVKNIAIAAGDSAKAIAEKMDGAIPNLSARARTVFTADVSGVTGGSLNFDVTVGSNTVSLAGVTSTQDLADQLNSNSSKLGITASINDKGVLTITSATGENVKFGAQTGTATAGQVAVKVQGSDGKFEAAAKNVVAAGTAATTTIVTGYVQLNSPTAYSVSGTGTQASQVFGNASAAQKSSVASVDISTADGAQNAIAVVDNALAAIDAQRADLGAVQNRFKNTIDNLTNISENATNARSRIKDTDFAAETAALSKNQVLQQAGTAILAQANQLPQAVLSLLR
notes: Cloned in pET28-a with a C-terminal polyhistidine tag; source: E. coli BL21(DE3), purified (NiNTA, size-exclusion chromatography)
As to B1, the “stoichiometry N” value was determined as 2.
